Source: the RNAGym collection of RNA variant scans (doi:10.1021/acssynbio.7b00057)

B1: Pistol ribozyme (parent)
chain: GGGUCGUUGUUCCAUAAUCGCGUGGAUAUGGCACGCAAGUUUCUACCGGGCACCGUAAAUGUCCGACUGGAGCCGUUCGGGCGGCUAUAAACAGACCUCAGGCCCGAAGCGUGGCGGCACCUGCCGCCGGUGGUAAAAAAGAUCGGAAGAGCACACGUCU

Variants of: B1
Test: aptazyme ON/OFF ratio, guanine; higher = stronger switching; co-transcriptional cleavage with and without guanine

| Variant | aptazyme ON/OFF ratio |
| --- | --- |
| GGGUCGUCAGAAGAUAAUCGCGUGGAUAUGGCACGCAAGUUUCUACCGGGCACCGUAAAUGUCCGACUGGAGCCGUUCGGGCGGCUAUAAACAGACCUCAGGCCCGAAGCGUGGCGGCACCUGCCGCCGGUGGUAAAAAAGAUCGGAAGAGCACACGUCU [U8C G9A U10G U11A C12A C13G] | 1.12 |
| GGGUCGUCAGAAAAUAAUCGCGUGGAUAUGGCACGCAAGUUUCUACCGGGCACCGUAAAUGUCCGACUGGAGCCGUUCGGGCGGCUAUAAACAGACCUCAGGCCCGAAGCGUGGCGGCACCUGCCGCCGGUGGUAAAAAAGAUCGGAAGAGCACACGUCU [U8C G9A U10G U11A C12A C13A] | 1.14 |
| GGGUCGUCAGAAUAUAAUCGCGUGGAUAUGGCACGCAAGUUUCUACCGGGCACCGUAAAUGUCCGACUGGAGCCGUUCGGGCGGCUAUAAACAGACCUCAGGCCCGAAGCGUGGCGGCACCUGCCGCCGGUGGUAAAAAAGAUCGGAAGAGCACACGUCU [U8C G9A U10G U11A C12A C13U] | 1.15 |
| GGGUCGUCAGUCUAUAAUCGCGUGGAUAUGGCACGCAAGUUUCUACCGGGCACCGUAAAUGUCCGACUGGAGCCGUUCGGGCGGCUAUAAACAGACCUCAGGCCCGAAGCGUGGCGGCACCUGCCGCCGGUGGUAAAAAAGAUCGGAAGAGCACACGUCU [U8C G9A U10G C13U] | 1.26 |
| GGGUCGUCAGUCGAUAAUCGCGUGGAUAUGGCACGCAAGUUUCUACCGGGCACCGUAAAUGUCCGACUGGAGCCGUUCGGGCGGCUAUAAACAGACCUCAGGCCCGAAGCGUGGCGGCACCUGCCGCCGGUGGUAAAAAAGAUCGGAAGAGCACACGUCU [U8C G9A U10G C13G] | 1.14 |
| GGGUCGUCAGUCAAUAAUCGCGUGGAUAUGGCACGCAAGUUUCUACCGGGCACCGUAAAUGUCCGACUGGAGCCGUUCGGGCGGCUAUAAACAGACCUCAGGCCCGAAGCGUGGCGGCACCUGCCGCCGGUGGUAAAAAAGAUCGGAAGAGCACACGUCU [U8C G9A U10G C13A] | 1.28 |
| GGGUCGUCAGUUUAUAAUCGCGUGGAUAUGGCACGCAAGUUUCUACCGGGCACCGUAAAUGUCCGACUGGAGCCGUUCGGGCGGCUAUAAACAGACCUCAGGCCCGAAGCGUGGCGGCACCUGCCGCCGGUGGUAAAAAAGAUCGGAAGAGCACACGUCU [U8C G9A U10G C12U C13U] | 1.54 |
| GGGUCGUCAGCGGAUAAUCGCGUGGAUAUGGCACGCAAGUUUCUACCGGGCACCGUAAAUGUCCGACUGGAGCCGUUCGGGCGGCUAUAAACAGACCUCAGGCCCGAAGCGUGGCGGCACCUGCCGCCGGUGGUAAAAAAGAUCGGAAGAGCACACGUCU [U8C G9A U10G U11C C12G C13G] | 1.28 |
| GGGUCGUCAGCGUAUAAUCGCGUGGAUAUGGCACGCAAGUUUCUACCGGGCACCGUAAAUGUCCGACUGGAGCCGUUCGGGCGGCUAUAAACAGACCUCAGGCCCGAAGCGUGGCGGCACCUGCCGCCGGUGGUAAAAAAGAUCGGAAGAGCACACGUCU [U8C G9A U10G U11C C12G C13U] | 1.2 |
| GGGUCGUCAGCGAAUAAUCGCGUGGAUAUGGCACGCAAGUUUCUACCGGGCACCGUAAAUGUCCGACUGGAGCCGUUCGGGCGGCUAUAAACAGACCUCAGGCCCGAAGCGUGGCGGCACCUGCCGCCGGUGGUAAAAAAGAUCGGAAGAGCACACGUCU [U8C G9A U10G U11C C12G C13A] | 1.18 |
| GGGUCGUCAGCAGAUAAUCGCGUGGAUAUGGCACGCAAGUUUCUACCGGGCACCGUAAAUGUCCGACUGGAGCCGUUCGGGCGGCUAUAAACAGACCUCAGGCCCGAAGCGUGGCGGCACCUGCCGCCGGUGGUAAAAAAGAUCGGAAGAGCACACGUCU [U8C G9A U10G U11C C12A C13G] | 1.1 |
| GGGUCGUCAGCAUAUAAUCGCGUGGAUAUGGCACGCAAGUUUCUACCGGGCACCGUAAAUGUCCGACUGGAGCCGUUCGGGCGGCUAUAAACAGACCUCAGGCCCGAAGCGUGGCGGCACCUGCCGCCGGUGGUAAAAAAGAUCGGAAGAGCACACGUCU [U8C G9A U10G U11C C12A C13U] | 1.22 |
| GGGUCGUCAGCAAAUAAUCGCGUGGAUAUGGCACGCAAGUUUCUACCGGGCACCGUAAAUGUCCGACUGGAGCCGUUCGGGCGGCUAUAAACAGACCUCAGGCCCGAAGCGUGGCGGCACCUGCCGCCGGUGGUAAAAAAGAUCGGAAGAGCACACGUCU [U8C G9A U10G U11C C12A C13A] | 1.15 |
| GGGUCGUCAGCACAUAAUCGCGUGGAUAUGGCACGCAAGUUUCUACCGGGCACCGUAAAUGUCCGACUGGAGCCGUUCGGGCGGCUAUAAACAGACCUCAGGCCCGAAGCGUGGCGGCACCUGCCGCCGGUGGUAAAAAAGAUCGGAAGAGCACACGUCU [U8C G9A U10G U11C C12A] | 1.23 |
| GGGUCGUCAGCGCAUAAUCGCGUGGAUAUGGCACGCAAGUUUCUACCGGGCACCGUAAAUGUCCGACUGGAGCCGUUCGGGCGGCUAUAAACAGACCUCAGGCCCGAAGCGUGGCGGCACCUGCCGCCGGUGGUAAAAAAGAUCGGAAGAGCACACGUCU [U8C G9A U10G U11C C12G] | 1.23 |
| GGGUCGUCAGCUCAUAAUCGCGUGGAUAUGGCACGCAAGUUUCUACCGGGCACCGUAAAUGUCCGACUGGAGCCGUUCGGGCGGCUAUAAACAGACCUCAGGCCCGAAGCGUGGCGGCACCUGCCGCCGGUGGUAAAAAAGAUCGGAAGAGCACACGUCU [U8C G9A U10G U11C C12U] | 1.07 |
| GGGUCGUCAGACGAUAAUCGCGUGGAUAUGGCACGCAAGUUUCUACCGGGCACCGUAAAUGUCCGACUGGAGCCGUUCGGGCGGCUAUAAACAGACCUCAGGCCCGAAGCGUGGCGGCACCUGCCGCCGGUGGUAAAAAAGAUCGGAAGAGCACACGUCU [U8C G9A U10G U11A C13G] | 1.04 |
| GGGUCGUCAGACUAUAAUCGCGUGGAUAUGGCACGCAAGUUUCUACCGGGCACCGUAAAUGUCCGACUGGAGCCGUUCGGGCGGCUAUAAACAGACCUCAGGCCCGAAGCGUGGCGGCACCUGCCGCCGGUGGUAAAAAAGAUCGGAAGAGCACACGUCU [U8C G9A U10G U11A C13U] | 1.02 |

| Variant | aptazyme ON/OFF ratio |
| --- | --- |
| GGGUCGUCAGACAAUAAUCGCGUGGAUAUGGCACGCAAGUUUCUACCGGGCACCGUAAAUGUCCGACUGGAGCCGUUCGGGCGGCUAUAAACAGACCUCAGGCCCGAAGCGUGGCGGCACCUGCCGCCGGUGGUAAAAAAGAUCGGAAGAGCACACGUCU [U8C G9A U10G U11A C13A] | 1.03 |
| GGGUCGUCAGCCCAUAAUCGCGUGGAUAUGGCACGCAAGUUUCUACCGGGCACCGUAAAUGUCCGACUGGAGCCGUUCGGGCGGCUAUAAACAGACCUCAGGCCCGAAGCGUGGCGGCACCUGCCGCCGGUGGUAAAAAAGAUCGGAAGAGCACACGUCU [U8C G9A U10G U11C] | 1.05 |
| GGGUCGUCAGACCAUAAUCGCGUGGAUAUGGCACGCAAGUUUCUACCGGGCACCGUAAAUGUCCGACUGGAGCCGUUCGGGCGGCUAUAAACAGACCUCAGGCCCGAAGCGUGGCGGCACCUGCCGCCGGUGGUAAAAAAGAUCGGAAGAGCACACGUCU [U8C G9A U10G U11A] | 1.02 |
| GGGUCGUCAGAACAUAAUCGCGUGGAUAUGGCACGCAAGUUUCUACCGGGCACCGUAAAUGUCCGACUGGAGCCGUUCGGGCGGCUAUAAACAGACCUCAGGCCCGAAGCGUGGCGGCACCUGCCGCCGGUGGUAAAAAAGAUCGGAAGAGCACACGUCU [U8C G9A U10G U11A C12A] | 1.19 |
| GGGUCGUCAGAUCAUAAUCGCGUGGAUAUGGCACGCAAGUUUCUACCGGGCACCGUAAAUGUCCGACUGGAGCCGUUCGGGCGGCUAUAAACAGACCUCAGGCCCGAAGCGUGGCGGCACCUGCCGCCGGUGGUAAAAAAGAUCGGAAGAGCACACGUCU [U8C G9A U10G U11A C12U] | 1.04 |
| GGGUCGUCAGAGCAUAAUCGCGUGGAUAUGGCACGCAAGUUUCUACCGGGCACCGUAAAUGUCCGACUGGAGCCGUUCGGGCGGCUAUAAACAGACCUCAGGCCCGAAGCGUGGCGGCACCUGCCGCCGGUGGUAAAAAAGAUCGGAAGAGCACACGUCU [U8C G9A U10G U11A C12G] | 1.14 |
| GGGUCGUCAGCUUAUAAUCGCGUGGAUAUGGCACGCAAGUUUCUACCGGGCACCGUAAAUGUCCGACUGGAGCCGUUCGGGCGGCUAUAAACAGACCUCAGGCCCGAAGCGUGGCGGCACCUGCCGCCGGUGGUAAAAAAGAUCGGAAGAGCACACGUCU [U8C G9A U10G U11C C12U C13U] | 1.28 |
| GGGUCGUCAGCUGAUAAUCGCGUGGAUAUGGCACGCAAGUUUCUACCGGGCACCGUAAAUGUCCGACUGGAGCCGUUCGGGCGGCUAUAAACAGACCUCAGGCCCGAAGCGUGGCGGCACCUGCCGCCGGUGGUAAAAAAGAUCGGAAGAGCACACGUCU [U8C G9A U10G U11C C12U C13G] | 1.15 |
| GGGUCGUCAGCUAAUAAUCGCGUGGAUAUGGCACGCAAGUUUCUACCGGGCACCGUAAAUGUCCGACUGGAGCCGUUCGGGCGGCUAUAAACAGACCUCAGGCCCGAAGCGUGGCGGCACCUGCCGCCGGUGGUAAAAAAGAUCGGAAGAGCACACGUCU [U8C G9A U10G U11C C12U C13A] | 1.2 |
| GGGUCGUCAGCCUAUAAUCGCGUGGAUAUGGCACGCAAGUUUCUACCGGGCACCGUAAAUGUCCGACUGGAGCCGUUCGGGCGGCUAUAAACAGACCUCAGGCCCGAAGCGUGGCGGCACCUGCCGCCGGUGGUAAAAAAGAUCGGAAGAGCACACGUCU [U8C G9A U10G U11C C13U] | 1.06 |
| GGGUCGUCAGCCGAUAAUCGCGUGGAUAUGGCACGCAAGUUUCUACCGGGCACCGUAAAUGUCCGACUGGAGCCGUUCGGGCGGCUAUAAACAGACCUCAGGCCCGAAGCGUGGCGGCACCUGCCGCCGGUGGUAAAAAAGAUCGGAAGAGCACACGUCU [U8C G9A U10G U11C C13G] | 1.07 |
| GGGUCGUCAGCCAAUAAUCGCGUGGAUAUGGCACGCAAGUUUCUACCGGGCACCGUAAAUGUCCGACUGGAGCCGUUCGGGCGGCUAUAAACAGACCUCAGGCCCGAAGCGUGGCGGCACCUGCCGCCGGUGGUAAAAAAGAUCGGAAGAGCACACGUCU [U8C G9A U10G U11C C13A] | 1.11 |
| GGGUCGUCAGAUUAUAAUCGCGUGGAUAUGGCACGCAAGUUUCUACCGGGCACCGUAAAUGUCCGACUGGAGCCGUUCGGGCGGCUAUAAACAGACCUCAGGCCCGAAGCGUGGCGGCACCUGCCGCCGGUGGUAAAAAAGAUCGGAAGAGCACACGUCU [U8C G9A U10G U11A C12U C13U] | 1.17 |
| GGGUCGUCAGAUAAUAAUCGCGUGGAUAUGGCACGCAAGUUUCUACCGGGCACCGUAAAUGUCCGACUGGAGCCGUUCGGGCGGCUAUAAACAGACCUCAGGCCCGAAGCGUGGCGGCACCUGCCGCCGGUGGUAAAAAAGAUCGGAAGAGCACACGUCU [U8C G9A U10G U11A C12U C13A] | 1.1 |
| GGGUCGUCAGAUGAUAAUCGCGUGGAUAUGGCACGCAAGUUUCUACCGGGCACCGUAAAUGUCCGACUGGAGCCGUUCGGGCGGCUAUAAACAGACCUCAGGCCCGAAGCGUGGCGGCACCUGCCGCCGGUGGUAAAAAAGAUCGGAAGAGCACACGUCU [U8C G9A U10G U11A C12U C13G] | 1.16 |
| GGGUCGUCAGAGUAUAAUCGCGUGGAUAUGGCACGCAAGUUUCUACCGGGCACCGUAAAUGUCCGACUGGAGCCGUUCGGGCGGCUAUAAACAGACCUCAGGCCCGAAGCGUGGCGGCACCUGCCGCCGGUGGUAAAAAAGAUCGGAAGAGCACACGUCU [U8C G9A U10G U11A C12G C13U] | 1.22 |
| GGGUCGUCAGAGAAUAAUCGCGUGGAUAUGGCACGCAAGUUUCUACCGGGCACCGUAAAUGUCCGACUGGAGCCGUUCGGGCGGCUAUAAACAGACCUCAGGCCCGAAGCGUGGCGGCACCUGCCGCCGGUGGUAAAAAAGAUCGGAAGAGCACACGUCU [U8C G9A U10G U11A C12G C13A] | 1.19 |
| GGGUCGUCAGAGGAUAAUCGCGUGGAUAUGGCACGCAAGUUUCUACCGGGCACCGUAAAUGUCCGACUGGAGCCGUUCGGGCGGCUAUAAACAGACCUCAGGCCCGAAGCGUGGCGGCACCUGCCGCCGGUGGUAAAAAAGAUCGGAAGAGCACACGUCU [U8C G9A U10G U11A C12G C13G] | 1.35 |
